Test results: article PMC4427845, “Redesigning Protein Cavities as a Strategy for Increasing Affinity in Protein-Protein Interaction: Interferon-γ Receptor 1 as a Model” (BioMed Research International, 2015)

Key:
Experiment in all cases: SPR; His-tagged receptor variants immobilised on a Ni2+-activated HTG sensor chip (ProteOn); IFNγSC 0.1-9 nM flowed over, 90 s association, 10 min dissociation, 100 μL/min; PBST (PBS pH 7.4, 0.005% Tween 20); doubly referenced (interspots and His-tagged FrpD channel); 1:1 Langmuir with drift model
Settings in all cases: both partners purified
[1] = target: T1, IFNγR1 G225Y variant (residues 18-245) (human, UniProt P15260 18-245, G225Y)
T1 construct: interferon-γ receptor 1 (IFNγR1), human, extracellular domain, residues 18-245 of UniProt P15260; No primers are printed for this mutation; the methods say one protocol was followed for all proteins of the study; not shown: His tag, C-terminal, kept
T1 sequence (looked up): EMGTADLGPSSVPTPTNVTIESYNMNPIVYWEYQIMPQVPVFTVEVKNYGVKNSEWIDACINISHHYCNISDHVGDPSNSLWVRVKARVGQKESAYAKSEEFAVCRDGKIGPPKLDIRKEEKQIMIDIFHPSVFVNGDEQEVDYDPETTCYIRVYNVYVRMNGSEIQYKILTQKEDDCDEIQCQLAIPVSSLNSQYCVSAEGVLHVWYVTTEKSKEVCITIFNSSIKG

[2] = target: T2, IFNγR1 N96W + G225Y double mutant (residues 18-245) (human, UniProt P15260 18-245, N96W | G225Y)
T2 construct: interferon-γ receptor 1 (IFNγR1), human, extracellular domain, residues 18-245 of UniProt P15260; not shown: His tag, C-terminal, kept
T2 sequence (looked up): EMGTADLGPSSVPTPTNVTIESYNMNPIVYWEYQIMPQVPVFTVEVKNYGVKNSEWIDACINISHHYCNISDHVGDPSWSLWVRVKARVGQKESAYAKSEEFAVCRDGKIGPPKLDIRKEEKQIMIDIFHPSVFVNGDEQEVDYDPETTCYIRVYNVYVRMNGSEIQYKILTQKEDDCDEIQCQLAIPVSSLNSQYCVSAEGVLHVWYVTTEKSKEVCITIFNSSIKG

[3] = target: T3, IFNγR1 N96W + V35L variant (residues 18-245) (human, UniProt P15260 18-245, V35L | N96W)
T3 construct: interferon-γ receptor 1 (IFNγR1), human, extracellular domain, residues 18-245 of UniProt P15260; not shown: His tag, C-terminal, kept
T3 sequence (looked up): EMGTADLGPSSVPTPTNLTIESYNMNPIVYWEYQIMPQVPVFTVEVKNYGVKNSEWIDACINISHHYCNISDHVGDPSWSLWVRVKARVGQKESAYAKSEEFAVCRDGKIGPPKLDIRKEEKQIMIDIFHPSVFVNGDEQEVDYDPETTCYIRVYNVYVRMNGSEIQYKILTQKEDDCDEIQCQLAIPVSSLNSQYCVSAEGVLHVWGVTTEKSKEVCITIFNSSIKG

ratio of Kd values against WT [1]: 0.4 | ratio of Kd values against WT [2]: 3.1 | fold of affinity against WT [3]: 7 fold
B1: Recombinant interferon gamma in so-called single chain form (IFNγSC) (ligand)
chain: MQDPYVKEAENLKKYFNAGHSDVADNGTLFLGILKNWKEESDRKIMQSQIVSFYFKLFKNFKDDQSIQKSVETIKEDMNVKFFNSNKKKRDDFEKLTNYSVTDLNVQRKAIDELIQVMAEFSTEEQQEGPYVKEAENLKKYFNAGHSDVADNGTLFLGILKNWKEESDRKIMQSQIVSFYFKLFKNFKDDQSIQKSVETIKEDMNVKFFNSNKKKRDDFEKLTNYSVTDLNVQRKAIHELIQVMAELSPAAKTGKRKRSQMLFRG
